In the supplement of paper PMC7125110:
± gives the standard error. Fewer inactive variants are shown than the library holds.

B1: glmS ribozyme (parent)
chain: AUAAAAGCGCCAGAACUACAGAAAUGUAGUUGACGAGGAGGAGGUUUAUCGAAUUUUCGGCGGAUGCCUCCAAA

How the values were obtained:
Details in all cases: with glucosamine-6-phosphate
[1] = variants of: B1; experiment: self-cleavage kobs at 40 uM GlcN6P; higher = faster cleavage; RNA array
Procedure, shortened: (§1)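 Sequenced MiSeq chips were the platform: E. coli RNA polymerase transcribed barcoded ribozyme variants on them in situ, and a hybridised Cy3 probe tracked these at 37 °C. After glucosamine-6-phosphate (40 μM to 10 mM) in HEPES/KCl/Mg(OAc)2 buffer was flowed in, tiles were imaged over ~14 h. Signals normalised to baseline and to non-cleaving reference variants were reduced to per-tile medians and fit to one- or two-exponential decays to obtain kobs. kcat and KM were derived through weighted Michaelis–Menten fits across concentrations.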

[2] = variants of: B1; experiment: self-cleavage kobs at 160 uM GlcN6P; higher = faster cleavage; RNA array
Procedure, shortened: as §1

[3] = variants of: B1; experiment: self-cleavage kobs at 10000 uM GlcN6P; higher = faster cleavage; RNA array
Procedure, shortened: as §1

[4] = variants of: B1; experiment: self-cleavage kobs at 640 uM GlcN6P; higher = faster cleavage; RNA array
Procedure, shortened: as §1

[5] = variants of: B1; experiment: self-cleavage kobs at 2500 uM GlcN6P; higher = faster cleavage; RNA array
Procedure, shortened: as §1

Variant	self-cleavage kobs at 40 uM GlcN6P [1] [s⁻¹]	self-cleavage kobs at 160 uM GlcN6P [2] [s⁻¹]	self-cleavage kobs at 10000 uM GlcN6P [3] [s⁻¹]	self-cleavage kobs at 640 uM GlcN6P [4] [s⁻¹]	self-cleavage kobs at 2500 uM GlcN6P [5] [s⁻¹]
U55A G60A C67U	< 1e-05	–	–	–	–
A48U C61A	< 1e-05	< 1e-05	< 1e-05	–	–
U30G G44U U45C	< 1e-05	–	< 1e-05	–	–
A15G A36C C68G	6.45e-05 ± 2.9e-05	–	–	–	–
U30G G51C	< 1e-05	–	–	–	–
G7A A14C G40A U49A C71U	< 1e-05	–	–	–	–
G40U U45G C67U	< 1e-05	< 1e-05	5.49e-05 ± 1.2e-05	–	–
G38C G43C	< 1e-05	–	–	–	–
A6G C8A C58U	< 1e-05	–	< 1e-05	–	–
G7A G43U	< 1e-05	< 1e-05	< 1e-05	< 1e-05	< 1e-05
G13A G43A C67A	< 1e-05	–	–	–	–
G37U U46C	< 1e-05	–	< 1e-05	–	–
A12G A52C C67G C71U	< 1e-05	–	–	–	< 1e-05
G7A G59A	< 1e-05	< 1e-05	< 1e-05	< 1e-05	< 1e-05
C8A G43C C67U	< 1e-05	–	–	< 1e-05	< 1e-05
C11U G38U A52U	< 1e-05	< 1e-05	< 1e-05	< 1e-05	–
C10U G43A C70G	< 1e-05	–	–	–	–
C8U G9U U30G A64C	< 1e-05	–	< 1e-05	–	–
G37U G41U	< 1e-05	< 1e-05	< 1e-05	–	< 1e-05
U45G U54C G63C A64U U65G	< 1e-05	–	–	–	–
G60U U69C	< 1e-05	< 1e-05	< 1e-05	< 1e-05	–
C19A C67A	0.000243 ± 6.1e-05	–	0.000881 ± 0.00024	0.00033 ± 9.6e-05	–
C8G U56A	< 1e-05	–	–	< 1e-05	< 1e-05
G13U G40U A48U C67A	< 1e-05	–	< 1e-05	–	–

Variant	self-cleavage kobs at 40 uM GlcN6P [1] [s⁻¹]	self-cleavage kobs at 160 uM GlcN6P [2] [s⁻¹]	self-cleavage kobs at 10000 uM GlcN6P [3] [s⁻¹]	self-cleavage kobs at 640 uM GlcN6P [4] [s⁻¹]	self-cleavage kobs at 2500 uM GlcN6P [5] [s⁻¹]
A12G G60A	< 1e-05	< 1e-05	< 1e-05	–	< 1e-05
C16U G32C G40U C58U	< 1e-05	–	–	–	–
A53U C61A	< 1e-05	–	< 1e-05	–	–
A12C A14G A15C	0.000144 ± 2.4e-05	–	–	0.00124 ± 0.0003	0.00354 ± 0.00082
C34U G59C C71G	< 1e-05	–	< 1e-05	–	–
A12C U55G	0.000833 ± 0.00013	0.000979 ± 0.00021	0.0274 ± 0.0044	0.00404 ± 0.00084	0.00822 ± 0.0022
A39C C50A G60A C61U U65A	< 1e-05	–	< 1e-05	–	–
G29A G51A	< 1e-05	–	< 1e-05	–	–
G9A G63C	< 1e-05	–	< 1e-05	–	–
U30C G41C C61A C71U	< 1e-05	–	< 1e-05	–	–
C10G G29A	< 1e-05	–	< 1e-05	< 1e-05	–
G35A G51C	< 1e-05	–	–	< 1e-05	< 1e-05
A15U C34U	< 1e-05	< 1e-05	–	< 1e-05	< 1e-05
C8G U47G C68A	< 1e-05	–	–	–	< 1e-05
A6G A15U C34A	< 1e-05	< 1e-05	< 1e-05	< 1e-05	< 1e-05
G38A C50G C68U	7.89e-05 ± 2.3e-05	–	4.82e-05 ± 1.5e-05	8.33e-05 ± 3.1e-05	0.000109 ± 2.4e-05
G43C U46A	< 1e-05	–	< 1e-05	–	< 1e-05
C11A A33U U54A	< 1e-05	–	–	–	–
C11A G38A G44C	< 1e-05	–	< 1e-05	–	–
U46C G60C	< 1e-05	< 1e-05	< 1e-05	< 1e-05	< 1e-05
A36G C50G C68U	0.000269 ± 0.0001	0.000434 ± 0.00013	0.000205 ± 5.4e-05	0.000436 ± 0.00017	9.73e-05 ± 3.6e-05
C10G A15U A36U G38A A53G C68G C70U	0.000148 ± 4.5e-05	–	–	–	–
C8G U30G	< 1e-05	< 1e-05	< 1e-05	< 1e-05	–
